Series [1] is described as follows: Thermal stability assessment by nanoDSC. To be noted: 1 mg/mL in PBS, scan 25-100° C. at 1° C./min; for TM: major transition. Type of series: physicochemical. As to the method: To determine the melting temperatures (Tms) of the lipocalin muteins, which is a general indicator for folding stability, the CTGF specific muteins, at a protein concentration of 1 mg/mL in PBS (Gibco), were scanned (25-100° C.) at 1° C./min using a capillary nanoDSC instrument (CSC 6300, TA Instruments). […] Several unfolding events can contribute to the observed thermogram. In cases with multiple transitions, the one with the major unfolding energy best represents the overall protein fold and is reported. Muteins were produced as described in Example 3. SEQ ID NOs: 3, 7, 9, 25, and 29 were expressed using E. coli, the other muteins were expressed using CHO cells.
The resulting maximum melting temperatures as well as the onset temperature of melting for exemplary lipocalin muteins and fusion proteins are listed in Table 3 below.

Series [2] has as its target T1, human CTGF (Homo sapiens, UniProt P29279).
T1 construct: purchased Creative Biomart
Description: SPR binding kinetics and affinity, human CTGF. As to conditions: 25° C., 1:1 binding model. As for the experimental part: (§1) Surface plasmon resonance (SPR) was used to measure binding kinetics and affinity of the representative lipocalin muteins disclosed herein.
(§2) The binding of exemplary lipocalin muteins to human (Creative Biomart), cynomolgus, rat (R&D Systems) and mouse CTGF (Abbexa) was determined by SPR using a Biacore instrument (Cytiva, formerly GE Healthcare). Some targets were fused to a human IgG1 Fc tag, and captured via the anti-human IgG antibody kit, others were directly immobilized.
(§3) For some measurements, human CTGF with a human IgG1 Fc Tag or rat or murine CTGF without a tag were directly immobilized to a CM5 Chip. The carboxyl groups on the chip were activated using 1-ethyl-3-(3-dimethylaminopropyl)-carbodiimide (EDC) and N-hydroxysuccinimide (NHS). Subsequently, the targets at a concentration of 3-5 μg/mL in 10 mM sodium acetate (pH) 4.5 were applied at a flow rate of 10 μL/min until an immobilization level of 300-1100 resonance units was achieved. Residual non-reacted NHS-esters were blocked by passing a solution of 1 M ethanolamine across the surface. The reference channel was activated/deactivated. For the capture setting, targets with an IgG Fc Tag at 0.25-2.5 μg/mL in HBS-EP+ buffer were captured by the anti-human IgG-Fc antibody at the chip surface for 180 s at a flow rate of 10 μL/min.
(§4) The binding assay was carried out with a contact time of 180 s, a dissociation time of 900-3600 s and a flow rate of 30 μL/min. All measurements were performed at 25° C. […] For the directly immobilized targets, the same regeneration conditions were used. Prior to the protein measurements, three startup cycles were performed for conditioning purposes. Data were evaluated with Biacore Evaluation software. Double referencing was used and the 1:1 binding model was used to fit the raw data.
(In SPR one partner is held on a chip, and binding of the other changes the refractive index at the surface.)

Series [3] has as its target T2, human CTGF (Homo sapiens, UniProt P29279, H83D).
T2 construct: purchased Creative Biomart
Description: SPR binding kinetics and affinity, human CTGF. As to conditions: 25° C., 1:1 binding model. As for the experimental part:
as §1, §2, §3, §4

The target in the next series is T3, Murine CTGF (Mus musculus, UniProt P29268).
T3 construct: purchased Abbexa
T3 sequence (P29268 26-348): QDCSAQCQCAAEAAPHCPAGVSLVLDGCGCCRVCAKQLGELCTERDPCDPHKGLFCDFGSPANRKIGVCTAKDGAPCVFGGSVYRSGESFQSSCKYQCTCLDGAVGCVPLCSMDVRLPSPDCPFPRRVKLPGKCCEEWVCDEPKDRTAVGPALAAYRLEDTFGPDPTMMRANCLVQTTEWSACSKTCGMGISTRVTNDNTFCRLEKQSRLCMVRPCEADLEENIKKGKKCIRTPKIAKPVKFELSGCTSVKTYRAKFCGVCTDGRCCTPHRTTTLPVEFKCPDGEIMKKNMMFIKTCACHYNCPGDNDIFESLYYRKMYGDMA
Description: SPR binding kinetics and affinity, murine CTGF. Further details: key to Murine CTGF kon / Murine CTGF koff / Murine CTGF KD: B binding without determination of kinetics constants. As to conditions: 25° C., 1:1 binding model. As to the method:
as §1, §2, §3, §4
The values determined for kon, koff and the resulting equilibrium dissociation constant (KD) for exemplary lipocalin muteins are summarized in Table 4.

T2 sequence (P29279 with tags, fused parts or gaps H83D): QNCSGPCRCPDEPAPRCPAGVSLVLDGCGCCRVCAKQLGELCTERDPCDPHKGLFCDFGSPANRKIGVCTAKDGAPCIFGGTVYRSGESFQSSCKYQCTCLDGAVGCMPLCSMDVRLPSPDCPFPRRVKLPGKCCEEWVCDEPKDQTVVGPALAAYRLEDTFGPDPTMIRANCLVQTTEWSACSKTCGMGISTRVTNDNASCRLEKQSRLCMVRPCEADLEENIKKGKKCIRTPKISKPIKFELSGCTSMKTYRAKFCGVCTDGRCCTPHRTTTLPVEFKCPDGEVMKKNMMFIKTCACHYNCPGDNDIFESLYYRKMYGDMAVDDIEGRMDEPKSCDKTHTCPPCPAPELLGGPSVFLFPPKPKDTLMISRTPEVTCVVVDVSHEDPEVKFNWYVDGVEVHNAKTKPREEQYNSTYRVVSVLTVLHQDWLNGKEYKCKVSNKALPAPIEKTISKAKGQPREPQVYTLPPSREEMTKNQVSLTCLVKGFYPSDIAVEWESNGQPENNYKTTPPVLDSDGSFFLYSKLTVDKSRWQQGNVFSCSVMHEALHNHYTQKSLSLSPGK
T1 sequence (P29279 with tags, fused parts or gaps H83D): as above

B1: SEQ ID NO: 8: optimized CTGF-binding hNGAL lipocalin mutein (protein)
chain: QDSTSDLIPAPPLSKVPLQQNFQDNQFQGKWYVVGLAGNYGLRTDKRPSKMFATIYELKEDKSYDVTSVRFEQERCHYTIRTFVPGSQPGEFTSGNIGNYPGSYSTLVRVVSTNYNQHAMVFFKSVIQNREYFAITLYGRTKELTSELKENFIRFSKSLGLPENHIVFPVPIDQCIDG
modifications: lipocalin mutein
With B1, in series [1], the “ONSET MELTING” value stood at 49 °C and the TM was 75 °C. In addition, the “human CTGF koff” value with human CTGF [2] came out at 0.000114 s⁻¹. Further, in the series with human CTGF [3], the “human CTGF kon” value worked out at 45400 M⁻¹ s⁻¹. Moreover, in the series with Murine CTGF, the “Murine CTGF koff” value stood at 0.000131 s⁻¹ and the “Murine CTGF kon” value was found to be 72000 M⁻¹ s⁻¹.

B2: SEQ ID NO: 14: optimized CTGF-binding hNGAL lipocalin mutein (protein)
chain: QDSTSDLIPAPPLSKVPLQQNFQDNQFQGKWYVVGLAGNAILREDKYPAKMFATIYELKEDKSYDVTSVRFEAKSCIYTIKTFVPGSQPGEFTRGNIKSAPGQTSTLVRVVSTNYNQHAMVFFKHVSQNREIFVITLYGRTKELTSELKENFIRFSKSLGLPENHIVFPVPIDQCIDG
modifications: lipocalin mutein
As to B2, in series [1], the “ONSET MELTING” value was 57 °C and the TM was found to be 68 °C. In addition, the “human CTGF koff” value in the series with human CTGF [2] amounted to 5.34e-05 s⁻¹. Moreover, in the series with human CTGF [3], the “human CTGF kon” value turned out to be 102000 M⁻¹ s⁻¹. Also, in the series with Murine CTGF, the “Murine CTGF koff” value came out at 7.03e-05 s⁻¹ and the “Murine CTGF kon” value worked out at 190000 M⁻¹ s⁻¹.

B3: SEQ ID NO: 13: optimized CTGF-binding hNGAL lipocalin mutein (protein)
chain: QDSTSDLIPAPPLSKVPLQQNFQDNQFQGKWYVVGLAGNAILREDKYPAKMFATIYELKEDKSYDVTSVRFENKSCVYTSKTFVPGSQPGEFTTGNIKSAPGQTSTLVRVVSTNYNQHAMVFFKHVSQNREFFVITLYGRTKELTSELKENFIRFSKSLGLPENHIVFPVPIDQCIDG
modifications: lipocalin mutein
Take B3: the “human CTGF koff” value with human CTGF [2] was 2.51e-06 s⁻¹. Moreover, in the series with human CTGF [3], the “human CTGF kon” value was 51000 M⁻¹ s⁻¹. Also, in the series with Murine CTGF, the “Murine CTGF KD” value was “B”, the “Murine CTGF koff” value is recorded as “B” and the “Murine CTGF kon” value is given as “B”.

B4: SEQ ID NO: 12: optimized CTGF-binding hNGAL lipocalin mutein (protein)
chain: QDSTSDLIPAPPLSKVPLQQNFQDNQFQGKWYVVGLAGNAILREDKYPAKMFATIYELKEDKSYDVTSVRFENKSCVYTIKTFVPGSQPGEFTTGNIKSAPGQTSTLVRVVSTNYNQHAMVFFKHVSQNREFFVITLYGRTKELTSELKENFIRFSKSLGLPENHIVFPVPIDQCIDG
modifications: lipocalin mutein
For the molecule B4, the “human CTGF koff” value with human CTGF [2] came to 0.000133 s⁻¹. For the same molecule, the “human CTGF kon” value with human CTGF [3] is 55600 M⁻¹ s⁻¹. Also, in the series with Murine CTGF, the “Murine CTGF koff” value is 0.000128 s⁻¹ and the “Murine CTGF kon” value was 91400 M⁻¹ s⁻¹.

B5: SEQ ID NO: 16: optimized CTGF-binding hNGAL lipocalin mutein (protein)
chain: QDSTSDLIPAPPLSKVPLQQNFQDNQFQGKWYVVGLAGNAILRTDKQPAKMFATIYELKEDKSYDVTSVRFEAKSCVYTIKTFVPGSQPGEFTAGNIKSAPGQTSTLVRVVSTNYNQHAMVFFKHVSQNREFFVITLYGRTKELTSELKENFIRFSKSLGLPENHIVFPVPIDQCIDG
modifications: lipocalin mutein
Turning to B5, in series [1], the “ONSET MELTING” value was 59 °C and the TM turned out to be 73 °C. Besides, the “human CTGF koff” value with human CTGF [2] amounted to 7.02e-05 s⁻¹. In the series with human CTGF [3], the “human CTGF kon” value came out at 92300 M⁻¹ s⁻¹. In the series with Murine CTGF, the “Murine CTGF koff” value is 6.34e-05 s⁻¹ and the “Murine CTGF kon” value is 161000 M⁻¹ s⁻¹.

B6: SEQ ID NO: 19: optimized CTGF-binding hNGAL lipocalin mutein (protein)
chain: QDSTSDLIPAPPLSKVPLQQNFQDNQFQGKWYVVGLAGNAILREDKQPAKMFATIYELKEDKSYDVTSVRFEAKSCSYTIKTFVPGSQPGEFTAGNIKSAPGQTSTLVRVVSTNYNQHAMVFHKAVSQNRESFVITLYGRTKELTSELKENFIRFSKSLGLPENHIVFPVPIDQCIDG
modifications: lipocalin mutein
B6: in series [1], the “ONSET MELTING” value was 49 °C and the TM turned out to be 65 °C. In addition, the “human CTGF koff” value with human CTGF [2] was found to be 5.2e-05 s⁻¹. The “human CTGF kon” value with human CTGF [3] came out at 56600 M⁻¹ s⁻¹. Further, in the series with Murine CTGF, the “Murine CTGF koff” value came out at 2.54e-05 s⁻¹ and the “Murine CTGF kon” value stood at 93200 M⁻¹ s⁻¹.

B7: SEQ ID NO: 18: optimized CTGF-binding hNGAL lipocalin mutein (protein)
chain: QDSTSDLIPAPPLSKVPLQQNFQDNQFQGKWYVVGIAGNAILRDDKYPAKMFATIYELKEDKSYDVTSVRFENKSCIYTIKTFVPGSQPGEFTHGNIKSHPGQTSTLVRVVSTNYNQHAMVFFKHVSQNREIFVITLYGRTKELTSELKENFIRFSKSLGLPENHIVFPVPIDQCIDG
modifications: lipocalin mutein
Consider B7, for which, in the series with human CTGF [2], the “human CTGF koff” value came to 3.05e-06 s⁻¹. In addition, the “human CTGF kon” value with human CTGF [3] was 40900 M⁻¹ s⁻¹. In the series with Murine CTGF, the “Murine CTGF KD” value is recorded as “B”, the “Murine CTGF koff” value is listed as “B” and the “Murine CTGF kon” value was “B”.

B8: SEQ ID NO: 21: optimized CTGF-binding hNGAL lipocalin mutein (protein)
chain: QDSTSDLIPAPPLSKVPLQQNFQDNQFQGKWYVVGLAGNAILREDKQPAKMFATIYELKEDKSYDVTSVRFEAKSCSYTIKTFVPGSQPGEFTAGNIKSAPGQTSTLVRVVSTNYNQHAMVFFKAVRGARESFNIALYGRTKELTSELKENFIRFSKSLGLPENHIVFPVPIDQCIDG
modifications: lipocalin mutein
Take B8: in series [1], the “ONSET MELTING” value was 55 °C and the TM was determined as 65 °C. Also, the “human CTGF koff” value in the series with human CTGF [2] is 6.63e-05 s⁻¹. For the same molecule, the “human CTGF kon” value with human CTGF [3] was found to be 127000 M⁻¹ s⁻¹. In the series with Murine CTGF, the “Murine CTGF koff” value is 3.94e-05 s⁻¹ and the “Murine CTGF kon” value worked out at 228000 M⁻¹ s⁻¹.

B9: SEQ ID NO: 11: optimized CTGF-binding hNGAL lipocalin mutein (protein)
chain: QDSTSDLIPAPPLSKVPLQQNFQDNQFQGKWYVVGLAGNAILREDKQPAKMFATIYELKEDKSYDVTSVRFEAKSCSYTSKTFVPGSQPGEFTAGNIKSAPGQTSTLVRVVSTNYNQHAMVFFKHVSQNRETFVITLYGRTKELTSELKENFIRFSKSLGLPENHIVFPVPIDQCIDG
modifications: lipocalin mutein
In the case of B9, in the series with human CTGF [2], the “human CTGF koff” value was 0.000108 s⁻¹. Moreover, the “human CTGF kon” value with human CTGF [3] was determined as 44400 M⁻¹ s⁻¹. Moreover, in the series with Murine CTGF, the “Murine CTGF koff” value is 8.19e-05 s⁻¹ and the “Murine CTGF kon” value was 80100 M⁻¹ s⁻¹.
